This is an account of results in US20230406885A1, “CYCLIC PEPTIDES FOR TRAPPING INTERLEUKIN-1 BETA” (MERCK SHARP & DOHME LLC, priority 2022, published 2023).

The target of the experiment is Recombinant human IL-1β (BioLegend 579404) (human, UniProt P01584 117-269). Kind of experiment: cell-based or functional assay.

*1 amine or outer side, *2 acyl side, *3 side chain or, on linkers, in order; H or OH if unused. [ ]: non-standard residue; d: D form. TyrEtNAc = L-tyrosine O-ethyl acetamide, (S)-3-(4-(2-acetamidoethoxy)phenyl)-2-aminopropanoic acid, CC(=O)NCCOc1ccc(C[C@H](N[*:1])C(=O)[*:2])cc1; 3Pal4Ph4CO2H = (S)-4-(5-(2-amino-2-carboxyethyl)pyridin-2-yl)benzoic acid, O=C([C@H](Cc1ccc(-c2ccc(C(=O)[*:3])cc2)nc1)N[*:1])[*:2]; hF3CF3 = (S)-2-amino-4-(3-(trifluoromethyl)phenyl)butanoic acid, O=C([C@H](CCc1cccc(C(F)(F)F)c1)N[*:1])[*:2]; hF2CF3 = (S)-2-amino-4-(2-(trifluoromethyl)phenyl)butanoic acid, O=C([C@H](CCc1ccccc1C(F)(F)F)N[*:1])[*:2]; Pro(trans-4-NH2) = O=C([C@@H]1C[C@@H](N[*:3])CN1[*:1])[*:2]; Bip(4'-COOH) = N[C@@H](Cc1ccc(-c2ccc(C(=O)O)cc2)cc1)C(=O)O; 1Nal(3S-Me) = C[C@@H](c1cccc2ccccc12)[C@H](N)C(=O)O; hPhe(4-CF3) = N[C@@H](CCc1ccc(C(F)(F)F)cc1)C(=O)O; Phe(4-COOH) = N[C@@H](Cc1ccc(C(=O)O)cc1)C(=O)O; h3Pal(5-CN) = N#Cc1cncc(CC[C@H](N)C(=O)O)c1; Ala(4-THP) = N[C@@H](CC1CCOCC1)C(=O)O; hTyr = N[C@@H](CCc1ccc(O)cc1)C(=O)O; 4Pal = N[C@@H](Cc1ccncc1)C(=O)O; dDab = NCC[C@@H](N)C(=O)O; dNMeA = CN[C@H](C)C(=O)O; Dab = NCC[C@H](N)C(=O)O; Dap = NC[C@H](N)C(=O)O; Aib = CC(C)(N)C(=O)O

B1: SEQ ID NO: 107 (peptide)
peptide: cyclo([TyrEtNAc]W[Phe(4-COOH)]G[Pro(trans-4-NH2)][1Nal(3S-Me)]D[dNMeA]G[Bip(4'-COOH)]KG[Aib][hTyr])
SMILES: CC(=O)NCCOc1ccc(C[C@@H]2NC(=O)[C@H](CCc3ccc(O)cc3)NC(=O)C(C)(C)NC(=O)CNC(=O)[C@H](CCCCN)NC(=O)[C@H](Cc3ccc(-c4ccc(C(=O)O)cc4)cc3)NC(=O)CNC(=O)[C@@H](C)N(C)C(=O)[C@H](CC(=O)O)NC(=O)[C@H]([C@@H](C)c3cccc4ccccc34)NC(=O)[C@@H]3C[C@@H](N)CN3C(=O)CNC(=O)[C@H](Cc3ccc(C(=O)O)cc3)NC(=O)[C@H](Cc3c[nH]c4ccccc34)NC2=O)cc1
For the molecule B1, the “MRC5 IC50” value was 0.0582 nM.

B2: SEQ ID NO: 105 (peptide)
peptide: cyclo([TyrEtNAc]W[Phe(4-COOH)]G[Pro(trans-4-NH2)][1Nal(3S-Me)]D[dNMeA]G[Bip(4'-COOH)][4Pal]S[dA][hPhe(4-CF3)])
SMILES: CC(=O)NCCOc1ccc(C[C@@H]2NC(=O)[C@H](CCc3ccc(C(F)(F)F)cc3)NC(=O)[C@@H](C)NC(=O)[C@H](CO)NC(=O)[C@H](Cc3ccncc3)NC(=O)[C@H](Cc3ccc(-c4ccc(C(=O)O)cc4)cc3)NC(=O)CNC(=O)[C@@H](C)N(C)C(=O)[C@H](CC(=O)O)NC(=O)[C@H]([C@@H](C)c3cccc4ccccc34)NC(=O)[C@@H]3C[C@@H](N)CN3C(=O)CNC(=O)[C@H](Cc3ccc(C(=O)O)cc3)NC(=O)[C@H](Cc3c[nH]c4ccccc34)NC2=O)cc1
In the case of B2, the “MRC5 IC50” value was determined as 0.091 nM.

B3: SEQ ID NO: 110 (peptide)
peptide: cyclo([TyrEtNAc]W[Phe(4-COOH)]G[Pro(trans-4-NH2)][1Nal(3S-Me)]D[dNMeA]G[Bip(4'-COOH)]KL[dA][hTyr])
SMILES: CC(=O)NCCOc1ccc(C[C@@H]2NC(=O)[C@H](CCc3ccc(O)cc3)NC(=O)[C@@H](C)NC(=O)[C@H](CC(C)C)NC(=O)[C@H](CCCCN)NC(=O)[C@H](Cc3ccc(-c4ccc(C(=O)O)cc4)cc3)NC(=O)CNC(=O)[C@@H](C)N(C)C(=O)[C@H](CC(=O)O)NC(=O)[C@H]([C@@H](C)c3cccc4ccccc34)NC(=O)[C@@H]3C[C@@H](N)CN3C(=O)CNC(=O)[C@H](Cc3ccc(C(=O)O)cc3)NC(=O)[C@H](Cc3c[nH]c4ccccc34)NC2=O)cc1
As to B3, the “MRC5 IC50” value was found to be 0.196 nM.

B4: SEQ ID NO: 101 (peptide)
peptide: cyclo([TyrEtNAc]W[Phe(4-COOH)]G[Pro(trans-4-NH2)][1Nal(3S-Me)]D[dNMeA]G[Bip(4'-COOH)][4Pal][Dab][dA][hTyr])
SMILES: CC(=O)NCCOc1ccc(C[C@@H]2NC(=O)[C@H](CCc3ccc(O)cc3)NC(=O)[C@@H](C)NC(=O)[C@H](CCN)NC(=O)[C@H](Cc3ccncc3)NC(=O)[C@H](Cc3ccc(-c4ccc(C(=O)O)cc4)cc3)NC(=O)CNC(=O)[C@@H](C)N(C)C(=O)[C@H](CC(=O)O)NC(=O)[C@H]([C@@H](C)c3cccc4ccccc34)NC(=O)[C@@H]3C[C@@H](N)CN3C(=O)CNC(=O)[C@H](Cc3ccc(C(=O)O)cc3)NC(=O)[C@H](Cc3c[nH]c4ccccc34)NC2=O)cc1
As to B4, the “MRC5 IC50” value came to 0.247 nM.

B5: SEQ ID NO: 103 (peptide)
peptide: cyclo([TyrEtNAc]W[Phe(4-COOH)]G[Pro(trans-4-NH2)][1Nal(3S-Me)]D[dNMeA]G[Bip(4'-COOH)][4Pal]S[dA][hF2CF3])
SMILES: CC(=O)NCCOc1ccc(C[C@@H]2NC(=O)[C@H](CCc3ccccc3C(F)(F)F)NC(=O)[C@@H](C)NC(=O)[C@H](CO)NC(=O)[C@H](Cc3ccncc3)NC(=O)[C@H](Cc3ccc(-c4ccc(C(=O)O)cc4)cc3)NC(=O)CNC(=O)[C@@H](C)N(C)C(=O)[C@H](CC(=O)O)NC(=O)[C@H]([C@@H](C)c3cccc4ccccc34)NC(=O)[C@@H]3C[C@@H](N)CN3C(=O)CNC(=O)[C@H](Cc3ccc(C(=O)O)cc3)NC(=O)[C@H](Cc3c[nH]c4ccccc34)NC2=O)cc1
With B5, the “MRC5 IC50” value was determined as 0.066 nM.

B6: SEQ ID NO: 11 (peptide)
peptide: cyclo([3Pal4Ph4CO2H]W[Phe(4-COOH)]G[Pro(trans-4-NH2)][1Nal(3S-Me)]D[dNMeA]G[Bip(4'-COOH)]W[Dap][dA][hTyr])
SMILES: C[C@@H]1C(=O)NCC(=O)N[C@@H](Cc2ccc(-c3ccc(C(=O)O)cc3)cc2)C(=O)N[C@@H](Cc2c[nH]c3ccccc23)C(=O)N[C@@H](CN)C(=O)N[C@H](C)C(=O)N[C@@H](CCc2ccc(O)cc2)C(=O)N[C@@H](Cc2ccc(-c3ccc(C(=O)O)cc3)nc2)C(=O)N[C@@H](Cc2c[nH]c3ccccc23)C(=O)N[C@@H](Cc2ccc(C(=O)O)cc2)C(=O)NCC(=O)N2C[C@H](N)C[C@H]2C(=O)N[C@@H]([C@@H](C)c2cccc3ccccc23)C(=O)N[C@@H](CC(=O)O)C(=O)N1C
Take B6: the “MRC5 IC50” value was 0.0908 nM.

B7: SEQ ID NO: 109 (peptide)
peptide: cyclo([TyrEtNAc]W[Phe(4-COOH)]G[Pro(trans-4-NH2)][1Nal(3S-Me)]D[dNMeA]G[Bip(4'-COOH)]KG[dNMeA][hTyr])
SMILES: CC(=O)NCCOc1ccc(C[C@@H]2NC(=O)[C@H](CCc3ccc(O)cc3)NC(=O)[C@@H](C)N(C)C(=O)CNC(=O)[C@H](CCCCN)NC(=O)[C@H](Cc3ccc(-c4ccc(C(=O)O)cc4)cc3)NC(=O)CNC(=O)[C@@H](C)N(C)C(=O)[C@H](CC(=O)O)NC(=O)[C@H]([C@@H](C)c3cccc4ccccc34)NC(=O)[C@@H]3C[C@@H](N)CN3C(=O)CNC(=O)[C@H](Cc3ccc(C(=O)O)cc3)NC(=O)[C@H](Cc3c[nH]c4ccccc34)NC2=O)cc1
Take B7: the “MRC5 IC50” value worked out at 0.0775 nM.

B8: SEQ ID NO: 106 (peptide)
peptide: cyclo([TyrEtNAc]W[Phe(4-COOH)]G[Pro(trans-4-NH2)][1Nal(3S-Me)]D[dNMeA]G[Bip(4'-COOH)][Ala(4-THP)]G[dDab][h3Pal(5-CN)])
SMILES: CC(=O)NCCOc1ccc(C[C@@H]2NC(=O)[C@H](CCc3cncc(C#N)c3)NC(=O)[C@@H](CCN)NC(=O)CNC(=O)[C@H](CC3CCOCC3)NC(=O)[C@H](Cc3ccc(-c4ccc(C(=O)O)cc4)cc3)NC(=O)CNC(=O)[C@@H](C)N(C)C(=O)[C@H](CC(=O)O)NC(=O)[C@H]([C@@H](C)c3cccc4ccccc34)NC(=O)[C@@H]3C[C@@H](N)CN3C(=O)CNC(=O)[C@H](Cc3ccc(C(=O)O)cc3)NC(=O)[C@H](Cc3c[nH]c4ccccc34)NC2=O)cc1
Take B8: the “MRC5 IC50” value amounted to 0.0263 nM.

B9: SEQ ID NO: 111 (peptide)
peptide: cyclo([TyrEtNAc]W[Phe(4-COOH)]G[Pro(trans-4-NH2)][1Nal(3S-Me)]D[dNMeA]G[Bip(4'-COOH)]KS[dA][hPhe(4-CF3)])
SMILES: CC(=O)NCCOc1ccc(C[C@@H]2NC(=O)[C@H](CCc3ccc(C(F)(F)F)cc3)NC(=O)[C@@H](C)NC(=O)[C@H](CO)NC(=O)[C@H](CCCCN)NC(=O)[C@H](Cc3ccc(-c4ccc(C(=O)O)cc4)cc3)NC(=O)CNC(=O)[C@@H](C)N(C)C(=O)[C@H](CC(=O)O)NC(=O)[C@H]([C@@H](C)c3cccc4ccccc34)NC(=O)[C@@H]3C[C@@H](N)CN3C(=O)CNC(=O)[C@H](Cc3ccc(C(=O)O)cc3)NC(=O)[C@H](Cc3c[nH]c4ccccc34)NC2=O)cc1
Consider B9, for which the “MRC5 IC50” value was determined as 0.133 nM.

B10: SEQ ID NO: 112 (peptide)
peptide: cyclo([TyrEtNAc]W[Phe(4-COOH)]G[Pro(trans-4-NH2)][1Nal(3S-Me)]D[dNMeA]G[Bip(4'-COOH)]KS[dA][hTyr])
SMILES: CC(=O)NCCOc1ccc(C[C@@H]2NC(=O)[C@H](CCc3ccc(O)cc3)NC(=O)[C@@H](C)NC(=O)[C@H](CO)NC(=O)[C@H](CCCCN)NC(=O)[C@H](Cc3ccc(-c4ccc(C(=O)O)cc4)cc3)NC(=O)CNC(=O)[C@@H](C)N(C)C(=O)[C@H](CC(=O)O)NC(=O)[C@H]([C@@H](C)c3cccc4ccccc34)NC(=O)[C@@H]3C[C@@H](N)CN3C(=O)CNC(=O)[C@H](Cc3ccc(C(=O)O)cc3)NC(=O)[C@H](Cc3c[nH]c4ccccc34)NC2=O)cc1
B10: the “MRC5 IC50” value worked out at 0.0617 nM.

B11: SEQ ID NO: 102 (peptide)
peptide: cyclo([TyrEtNAc]W[Phe(4-COOH)]G[Pro(trans-4-NH2)][1Nal(3S-Me)]D[dNMeA]G[Bip(4'-COOH)][4Pal]G[dDab][h3Pal(5-CN)])
SMILES: CC(=O)NCCOc1ccc(C[C@@H]2NC(=O)[C@H](CCc3cncc(C#N)c3)NC(=O)[C@@H](CCN)NC(=O)CNC(=O)[C@H](Cc3ccncc3)NC(=O)[C@H](Cc3ccc(-c4ccc(C(=O)O)cc4)cc3)NC(=O)CNC(=O)[C@@H](C)N(C)C(=O)[C@H](CC(=O)O)NC(=O)[C@H]([C@@H](C)c3cccc4ccccc34)NC(=O)[C@@H]3C[C@@H](N)CN3C(=O)CNC(=O)[C@H](Cc3ccc(C(=O)O)cc3)NC(=O)[C@H](Cc3c[nH]c4ccccc34)NC2=O)cc1
As for B11, the “MRC5 IC50” value was found to be 0.0421 nM.

B12: SEQ ID NO: 104 (peptide)
peptide: cyclo([TyrEtNAc]W[Phe(4-COOH)]G[Pro(trans-4-NH2)][1Nal(3S-Me)]D[dNMeA]G[Bip(4'-COOH)][4Pal]S[dA][hF3CF3])
SMILES: CC(=O)NCCOc1ccc(C[C@@H]2NC(=O)[C@H](CCc3cccc(C(F)(F)F)c3)NC(=O)[C@@H](C)NC(=O)[C@H](CO)NC(=O)[C@H](Cc3ccncc3)NC(=O)[C@H](Cc3ccc(-c4ccc(C(=O)O)cc4)cc3)NC(=O)CNC(=O)[C@@H](C)N(C)C(=O)[C@H](CC(=O)O)NC(=O)[C@H]([C@@H](C)c3cccc4ccccc34)NC(=O)[C@@H]3C[C@@H](N)CN3C(=O)CNC(=O)[C@H](Cc3ccc(C(=O)O)cc3)NC(=O)[C@H](Cc3c[nH]c4ccccc34)NC2=O)cc1
In the case of B12, the “MRC5 IC50” value is 0.041 nM.

B13: SEQ ID NO: 108 (peptide)
peptide: cyclo([TyrEtNAc]W[Phe(4-COOH)]G[Pro(trans-4-NH2)][1Nal(3S-Me)]D[dNMeA]G[Bip(4'-COOH)]KG[dA][hTyr])
SMILES: CC(=O)NCCOc1ccc(C[C@@H]2NC(=O)[C@H](CCc3ccc(O)cc3)NC(=O)[C@@H](C)NC(=O)CNC(=O)[C@H](CCCCN)NC(=O)[C@H](Cc3ccc(-c4ccc(C(=O)O)cc4)cc3)NC(=O)CNC(=O)[C@@H](C)N(C)C(=O)[C@H](CC(=O)O)NC(=O)[C@H]([C@@H](C)c3cccc4ccccc34)NC(=O)[C@@H]3C[C@@H](N)CN3C(=O)CNC(=O)[C@H](Cc3ccc(C(=O)O)cc3)NC(=O)[C@H](Cc3c[nH]c4ccccc34)NC2=O)cc1
On to B13, for which the “MRC5 IC50” value came out at 0.102 nM.
